Source: article PMC5615199, “Structural Basis for EarP-Mediated Arginine Glycosylation of Translation Elongation Factor EF-P” (mBio, 2017)

Experiments:
[1] = system: T1, Cc1cn([C@H]2C[C@H](O)[C@@H](COP(=O)(O)OP(=O)(O)O[C@H]3O[C@@H](C)[C@H](O)[C@@H](O)[C@H]3O)O2)c(=O)[nH]c1=O; assay: Western blot quantification (anti-Arg-Rha) of EF-P rhamnosylation; assay type: biochemical, Pseudomonas putida; details: co-substrate unmodified P. putida EF-P 2.5 µM, 100 mM NaPi pH 7.6, 30°C
T1 construct: full-length (residues 1 to 377), 43 kDa, His6-tagged (C-terminal from pBAD33-earPPpu, N-terminal from pACYC-DUET for crystallization), expressed in E. coli; monomer

[2] = system: T1, Cc1cn([C@H]2C[C@H](O)[C@@H](COP(=O)(O)OP(=O)(O)O[C@H]3O[C@@H](C)[C@H](O)[C@@H](O)[C@H]3O)O2)c(=O)[nH]c1=O; assay: as above; assay type: biochemical, Pseudomonas putida; details: co-substrate unmodified P. putida EF-P 2.5 µM, 0.5 µM EarP, 100 mM NaPi pH 7.6, 30°C
Text: Western blot quantification (anti-Arg-Rha) of EF-P rhamnosylation on EarPPpu (EF-P-arginine rhamnosyltransferase EarP) | when we measured the kinetics of the F191A^EarP and Y193A^EarP variants

[3] = PcadBA::lacZ β-galactosidase, E. coli Δefp; details: glycan lost; control: EF-PPpu coproduced with wild-type EarPPpu
[4] = biological target: T2, EarPPpu, EarP from Pseudomonas putida KT2440, purified His6-tagged protein (Pseudomonas putida KT2440, UniProt Q88LS1 2-377); assay: NMR titration; 15N-labelled EF-P (150 µM unmodified or 41 µM rhamnosylated) titrated with unlabelled EarP to a 1:2 EF-P/EarP molar ratio, 1H-15N HSQC, 298 K, 100 mM NaPi pH 7.6, 50 mM NaCl, 5 mM DTT; details: both partners purified
T2 construct: EarP, Pseudomonas putida KT2440, 43 kDa; domains are told as aa 1-153, 184-361 and 362-377; also called WT^EarP; source: E. coli LMG194 (pBAD33-earPPpu) or E. coli BL21(DE3) (pACYC-DUET-earPPpu), purified (Ni-NTA)
T2 sequence: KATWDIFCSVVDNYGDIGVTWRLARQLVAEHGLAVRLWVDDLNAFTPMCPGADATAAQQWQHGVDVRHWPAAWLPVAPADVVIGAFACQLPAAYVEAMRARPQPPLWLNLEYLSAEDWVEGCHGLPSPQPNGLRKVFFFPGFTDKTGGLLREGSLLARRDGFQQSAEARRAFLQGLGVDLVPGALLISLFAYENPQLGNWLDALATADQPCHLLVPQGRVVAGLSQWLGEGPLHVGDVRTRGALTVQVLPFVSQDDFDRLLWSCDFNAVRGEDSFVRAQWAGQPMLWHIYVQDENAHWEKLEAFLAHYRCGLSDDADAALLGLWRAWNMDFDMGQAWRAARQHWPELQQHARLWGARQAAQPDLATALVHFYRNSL

[5] = substrate: Cc1cn([C@H]2C[C@H](O)[C@@H](COP(=O)(O)OP(=O)(O)O[C@H]3O[C@@H](C)[C@H](O)[C@@H](O)[C@H]3O)O2)c(=O)[nH]c1=O; assay: Western blot quantification (anti-Arg-Rha) of EF-P rhamnosylation; assay type: biochemical, Pseudomonas putida; details: co-substrate unmodified P. putida EF-P 2.5 µM, 0.1 µM EarP, 100 mM NaPi pH 7.6, 30°C, 20 s
[6] = lowest-mass SEC fraction of a partly unfolded, aggregating variant

Molecule: EarPPpu (EF-P-arginine rhamnosyltransferase EarP) (Pseudomonas putida KT2440; D274A)
- Km [1, 6]: 206 µM
- kcat [1, 6]: 0.0123 s⁻¹

Molecule: EarPPpu (EF-P-arginine rhamnosyltransferase EarP) (Pseudomonas putida KT2440; F191A)
- Km [2]: 810 µM
- kcat [2]: 0.00017 s⁻¹

Molecule: EarPPpu (EF-P-arginine rhamnosyltransferase EarP) (Pseudomonas putida KT2440; F252A)
- Km [1]: 3400 µM

Molecule: EarPPpu (EF-P-arginine rhamnosyltransferase EarP) (Pseudomonas putida KT2440; Y193A)
- Km [2]: 760 µM
- kcat [2]: 0.00017 s⁻¹

B1: EF-PPpu (translation elongation factor EF-P): coproduction with inactive D13AEarP (protein)
parent chain: MKTGKELKPGTVLRIDNDPWLVQKAEFTKSGRNSAIMKTKLKNLLTGYKTETVYGADDKLDDVILDRKEATLSFINGDEYTFMDTTDYTMYELNAEDIEAVLPYIEEGMEDVCEAVFFEGRLVSVELPTTISRKVVYTENAARGDTSGKVMKPAKLANGTEISVADFIQIDEWIDIDTRDNSFKGRSKK
- other: EF-P translational rescue activity (PcadBA activation) [3]: abolishes

B2: unmodified EF-PPpu, purified, tag-free (natural protein, Pseudomonas putida, UniProt Q88LS0 1-189, looked up)
chain: B1 parent chain
notes: translation elongation factor EF-P, Pseudomonas putida; 15N-labelled for the NMR titration (grown in M9 minimal medium); source: E. coli BL21(DE3) (pET-SUMO-efpPpu), purified (Ni-NTA, tag removed with His6-Ulp1)
- binding result [4]: binds

B3: EF-PPpu (translation elongation factor EF-P): coproduction with inactive E273AEarP (protein)
parent chain: B1 parent chain
- other: EF-P translational rescue activity (PcadBA activation) [3]: abolishes

B4: EF-PPpu (translation elongation factor EF-P): coproduction with inactive D17AEarP (protein)
parent chain: B1 parent chain
- other: EF-P translational rescue activity (PcadBA activation) [3]: abolishes

B5: rhamnosylated EF-PPpu (EF-P^Rha), purified (natural protein, Pseudomonas putida, UniProt Q88LS0 1-189, looked up)
chain: B1 parent chain
modifications: rhamnosyl-arginine at R32
notes: translation elongation factor EF-P, Pseudomonas putida, rhamnosylated on arginine 32; 15N-labelled for the NMR titration; also called modified EF-P; source: E. coli, cooverproduced with His6-tagged EarPPpu, purified
- binding result [4]: binds

B6: EarPPpu (EF-P-arginine rhamnosyltransferase EarP) (Pseudomonas putida KT2440) (protein)
chain: MKATWDIFCSVVDNYGDIGVTWRLARQLVAEHGLAVRLWVDDLNAFTPMCPGADATAAQQWQHGVDVRHWPAAWLPVAPADVVIGAFACQLPAAYVEAMRARPQPPLWLNLEYLSAEDWVEGCHGLPSPQPNGLRKVFFFPGFTDKTGGLLREGSLLARRDGFQQSAEARRAFLQGLGVDLVPGALLISLFAYENPQLGNWLDALATADQPCHLLVPQGRVVAGLSQWLGEGPLHVGDVRTRGALTVQVLPFVSQDDFDRLLWSCDFNAVRGEDSFVRAQWAGQPMLWHIYVQDENAHWEKLEAFLAHYRCGLSDDADAALLGLWRAWNMDFDMGQAWRAARQHWPELQQHARLWGARQAAQPDLATALVHFYRNSL
notes: full-length (residues 1 to 377), 43 kDa, His6-tagged (C-terminal from pBAD33-earPPpu, N-terminal from pACYC-DUET for crystallization), expressed in E. coli; monomer
- Km [5]: 53 µM
- kcat [5]: 0.583 s⁻¹
